# Key:
# Test in all cases: cell-based or functional assay
# [1] = biological target: Env of HIV isolate 0077.v1.c16 (clade C) (HIV)
# [2] = biological target: Env of HIV isolate 0921.v2.c14 (clade C) (HIV)
# [3] = biological target: Env of HIV isolate 16845-2.22 (clade C) (HIV)
# [4] = biological target: Env of HIV isolate 25925-2.22 (clade C) (HIV)
# [5] = biological target: Env of HIV isolate 3168.v4.c10 (clade C) (HIV)
# [6] = biological target: Env of HIV isolate 3718.v3.c11 (clade A) (HIV)
# [7] = biological target: Env of HIV isolate 426c (clade C) (HIV)
# [8] = biological target: Env of HIV isolate 6095.v1.c10 (clade ACD) (HIV)
# [9] = biological target: Env of HIV isolate 928-28 (clade AG) (HIV)
# [10] = biological target: Env of HIV isolate BG1168.01 (clade B) (HIV)
# [11] = biological target: Env of HIV isolate CAP244.D3 (clade C) (HIV)
# [12] = biological target: Env of HIV isolate CAP256.206.C9 (clade C) (HIV)
# [13] = biological target: Env of HIV isolate CNE56 (clade AE) (HIV)
# [14] = biological target: Env of HIV isolate DU422.01 (clade C) (HIV)
# [15] = biological target: Env of HIV isolate HO86.8 (clade B) (HIV)
# [16] = biological target: Env of HIV isolate JRFL.JB (clade B) (HIV)
# [17] = biological target: Env of HIV isolate M02138 (clade AE) (HIV)
# [18] = biological target: Env of HIV isolate MB201.A1 (clade A) (HIV)
# [19] = biological target: Env of HIV isolate MI369.A5 (clade A) (HIV)
# [20] = biological target: Env of HIV isolate Q461.e2 (clade AD) (HIV)
# [21] = biological target: Env of HIV isolate Q769.h5 (clade A) (HIV)
# [22] = biological target: Env of HIV isolate QH209.14M.A2 (clade A) (HIV)
# [23] = biological target: Env of HIV isolate SO18.18 (clade C) (HIV)
# [24] = biological target: Env of HIV isolate SS1196.01 (clade B) (HIV)
# [25] = biological target: Env of HIV isolate T251-18 (clade AG) (HIV)
# [26] = biological target: Env of HIV isolate TZBD.02 (clade C) (HIV)
# [27] = biological target: Env of HIV isolate X1193.c1 (clade G) (HIV)
# [28] = biological target: Env of HIV isolate X2088.c9 (clade G) (HIV)
# [29] = biological target: Env of HIV isolate X2278.C2.B6 (clade B) (HIV)
# [30] = biological target: Env of HIV isolate ZM106.9 (clade C) (HIV)
# [31] = biological target: Env of HIV isolate ZM215.8 (clade C) (HIV)
# [32] = biological target: HIV Env of isolate 0921.v2.c14 (HIV)
# [33] = biological target: HIV Env of isolate 3301.v1.c24 (HIV)
# [34] = biological target: HIV Env of isolate 6101.10 (HIV)
# [35] = biological target: HIV Env of isolate 6322.v4.c1 (HIV)
# [36] = biological target: HIV Env of isolate 6540.v4.c1 (HIV)
# [37] = biological target: HIV Env of isolate ADA.DG (HIV)
# [38] = biological target: HIV Env of isolate BB539.2B13 (HIV)
# [39] = biological target: HIV Env of isolate BG505.W6M.C2 (HIV)
# [40] = biological target: HIV Env of isolate CNE15 (HIV)
# [41] = biological target: HIV Env of isolate CNE21 (HIV)
# [42] = biological target: HIV Env of isolate DU156.12 (HIV)
# [43] = biological target: HIV Env of isolate HXB2.DG (HIV) (UniProt P04578)
# [44] = biological target: HIV Env of isolate MB539.2B7 (HIV)
# [45] = biological target: HIV Env of isolate MW965.26 (HIV)
# [46] = biological target: HIV Env of isolate P1981.C5.3 (HIV)
# [47] = biological target: HIV Env of isolate R3265.c6 (HIV)
# [48] = biological target: HIV Env of isolate SO18.18 (HIV)
# [49] = biological target: HIV Env of isolate UG021.16 (HIV)
# [50] = biological target: HIV Env of isolate ZM176.66 (HIV)
# [51] = biological target: HIV Env of isolate ZM215.8 (HIV)
# [52] = biological target: HIV Env of isolate ZM249.1 (HIV)
substance,measurement,setting,value
PGT121 (antibody),"IC50, pseudovirus neutralization",[1],> 50 µg/mL
same,"IC50, pseudovirus neutralization",[2],> 50 µg/mL
same,"IC50, pseudovirus neutralization",[3],2.72 µg/mL
same,"IC50, pseudovirus neutralization",[4],0.045 µg/mL
same,"IC50, pseudovirus neutralization",[5],0.446 µg/mL
same,"IC50, pseudovirus neutralization",[6],0.559 µg/mL
same,"IC50, pseudovirus neutralization",[7],> 50 µg/mL
same,"IC50, pseudovirus neutralization",[8],1.98 µg/mL
same,"IC50, pseudovirus neutralization",[9],5.76 µg/mL
same,"IC50, pseudovirus neutralization",[10],> 50 µg/mL
same,"IC50, pseudovirus neutralization",[11],> 50 µg/mL
same,"IC50, pseudovirus neutralization",[12],0.02 µg/mL
same,"IC50, pseudovirus neutralization",[13],> 50 µg/mL
same,"IC50, pseudovirus neutralization",[14],0.062 µg/mL
same,"IC50, pseudovirus neutralization",[15],> 50 µg/mL
same,"IC50, pseudovirus neutralization",[16],0.0397 µg/mL
same,"IC50, pseudovirus neutralization",[17],> 50 µg/mL
same,"IC50, pseudovirus neutralization",[18],0.00933 µg/mL
same,"IC50, pseudovirus neutralization",[19],0.0507 µg/mL
same,"IC50, pseudovirus neutralization",[20],> 50 µg/mL
same,"IC50, pseudovirus neutralization",[21],> 50 µg/mL
same,"IC50, pseudovirus neutralization",[22],> 50 µg/mL
same,"IC50, pseudovirus neutralization",[23],0.00533 µg/mL
same,"IC50, pseudovirus neutralization",[24],0.0123 µg/mL
same,"IC50, pseudovirus neutralization",[25],3.05 µg/mL
same,"IC50, pseudovirus neutralization",[26],0.0257 µg/mL
same,"IC50, pseudovirus neutralization",[27],0.0457 µg/mL
same,"IC50, pseudovirus neutralization",[28],0.00633 µg/mL
same,"IC50, pseudovirus neutralization",[29],0.026 µg/mL
same,"IC50, pseudovirus neutralization",[30],0.0127 µg/mL
same,"IC50, pseudovirus neutralization",[31],0.0307 µg/mL
same,"IC80, pseudovirus neutralization",[32],> 50 µg/mL
same,IC80,[33],0.05 µg/mL
same,IC80,[34],0.0353 µg/mL
same,"IC80, pseudovirus neutralization",[35],> 50 µg/mL
same,IC80,[36],> 50 µg/mL
same,IC80,[37],0.109 µg/mL
same,IC80,[38],> 50 µg/mL
same,IC80,[39],0.165 µg/mL
same,"IC80, pseudovirus neutralization",[40],> 50 µg/mL
same,"IC80, pseudovirus neutralization",[41],0.0383 µg/mL
same,"IC80, pseudovirus neutralization",[42],0.0367 µg/mL
same,IC80,[43],> 50 µg/mL
same,IC80,[44],> 50 µg/mL
same,"IC80, pseudovirus neutralization",[45],0.093 µg/mL
same,"IC80, pseudovirus neutralization",[46],0.013 µg/mL
same,IC80,[47],> 50 µg/mL
same,"IC80, pseudovirus neutralization",[48],0.0167 µg/mL
same,"IC80, pseudovirus neutralization",[49],> 50 µg/mL
same,"IC80, pseudovirus neutralization",[50],27.6 µg/mL
same,"IC80, pseudovirus neutralization",[51],0.084 µg/mL
same,"IC80, pseudovirus neutralization",[52],> 50 µg/mL

# — patent US20210292396A1
